Assay [1] addresses HRAS peptide, …(OMe)-farnesyl. The experiment in a line: ITC; PDE6D (100-300 μM) in the syringe, peptides (10-30 μM) in the cell; 25 °C; 10 mM Tris pH 7.5, 150 mM NaCl, 2 mM DTT, 5% DMSO.
Assay [2] concerns the target KRAS WT peptide, …(OMe)-farnesyl. Described as above.
Another assay addresses PDE6D (Homo sapiens) (UniProt O43924). To be noted: cited from earlier work.

INPP5E, sequence (Q9NRR6 1-641): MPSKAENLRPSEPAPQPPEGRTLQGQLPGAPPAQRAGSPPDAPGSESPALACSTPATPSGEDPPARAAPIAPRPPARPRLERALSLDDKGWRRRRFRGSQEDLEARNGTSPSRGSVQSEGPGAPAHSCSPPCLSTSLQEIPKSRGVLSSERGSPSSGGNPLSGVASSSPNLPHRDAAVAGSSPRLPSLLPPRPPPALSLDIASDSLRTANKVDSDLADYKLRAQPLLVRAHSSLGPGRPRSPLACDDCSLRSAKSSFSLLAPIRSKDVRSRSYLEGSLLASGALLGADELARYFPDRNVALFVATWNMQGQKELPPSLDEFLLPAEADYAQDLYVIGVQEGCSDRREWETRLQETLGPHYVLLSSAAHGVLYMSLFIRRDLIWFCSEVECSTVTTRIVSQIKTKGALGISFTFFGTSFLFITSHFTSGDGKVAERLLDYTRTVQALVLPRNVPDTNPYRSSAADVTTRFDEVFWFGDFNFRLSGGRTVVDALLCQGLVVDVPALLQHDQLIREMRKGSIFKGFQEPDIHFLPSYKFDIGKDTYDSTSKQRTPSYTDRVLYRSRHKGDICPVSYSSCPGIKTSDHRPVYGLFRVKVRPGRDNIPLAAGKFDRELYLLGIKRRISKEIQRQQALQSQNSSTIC

Consider “PDE6D (phosphodiesterase 6 delta), wild type, polyhistidine tag removed (from UniProt O43924 1-150) (natural protein)”, for which the dissociation constant (Kd) in assay [1] came out at 2700 nM; in assay [2], 1300 nM.
For the substance INPP5E (from UniProt Q9NRR6), the Kd with PDE6D (Homo sapiens) was 10 nM.
